Changes are numbered by the printed parent chain.
B1: Construct 15 (mAb423) with IgG1 YTE LALA heavy chain constant region (antibody, V domains shown)
VH: EVQLVESGGGLEQPGGSLRLSCAGSGFTFRDFAMTWVRQAPGKGLEWVSSISGSGGNIYYADSVKGRFTISRDNSKNTLYLQMNSLRAEDTAVYYCAKDRLSKTIRPRYYGLDVWGQGTTVTVSS
VL: DIVMTQSPLSLPVTPGEPASISCTASQSLLYSIGYNYVDWYLQKSGQSPQLLIYLGNKRASGVPDRFSGSGSGTDFTLKISRVEAEDVGFYYCMQSLTSPYTFGQGTKLEIK
B2: Construct 31 (mAb443) with IgG1 YTE LALA heavy chain constant region (antibody, V domains shown)
VH: B1 VH with K103V, I105V
VL: B1 VL with T24R, A25S, I33N, V38L, N57S, K58N, S96A, T98Q, S99A
B3: Construct 24 (mAb432) with IgG1 YTE LALA heavy chain constant region (antibody, V domains shown)
VH: B1 VH with K103I, T104A, I105V
VL: B1 VL with Y35K, K58N, S61T

Each binder was assayed against T1, hIL-4Rα on cells (human, UniProt P24394 26-825) (assay: cell-based or functional assay).
T1 sequence: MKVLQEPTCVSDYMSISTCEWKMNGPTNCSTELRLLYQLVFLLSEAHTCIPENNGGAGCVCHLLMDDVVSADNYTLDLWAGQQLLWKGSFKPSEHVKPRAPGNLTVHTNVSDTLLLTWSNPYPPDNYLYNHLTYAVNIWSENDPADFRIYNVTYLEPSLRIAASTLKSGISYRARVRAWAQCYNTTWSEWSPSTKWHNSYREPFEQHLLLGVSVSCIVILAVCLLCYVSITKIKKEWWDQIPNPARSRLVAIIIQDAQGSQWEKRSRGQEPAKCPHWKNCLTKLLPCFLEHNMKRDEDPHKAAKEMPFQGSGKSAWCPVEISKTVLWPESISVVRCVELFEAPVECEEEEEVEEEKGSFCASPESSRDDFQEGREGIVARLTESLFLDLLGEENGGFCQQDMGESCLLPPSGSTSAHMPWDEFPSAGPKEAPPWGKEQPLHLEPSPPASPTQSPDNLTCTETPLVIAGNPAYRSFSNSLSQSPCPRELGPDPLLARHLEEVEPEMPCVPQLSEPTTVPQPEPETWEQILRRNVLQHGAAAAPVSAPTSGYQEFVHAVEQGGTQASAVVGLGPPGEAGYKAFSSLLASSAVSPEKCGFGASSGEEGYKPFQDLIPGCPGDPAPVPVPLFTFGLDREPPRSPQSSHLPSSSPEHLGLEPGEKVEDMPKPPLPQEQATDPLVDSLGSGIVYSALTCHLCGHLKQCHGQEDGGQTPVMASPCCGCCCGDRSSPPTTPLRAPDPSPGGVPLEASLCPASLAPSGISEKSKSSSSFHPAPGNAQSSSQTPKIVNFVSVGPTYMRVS

Compared with B1, B2 is higher in “Inhibition of IL-4 induced pSTAT6 IC50” value: 0.122 nM for the first, 0.452 nM for the second.

With B3 the “Inhibition of IL-4 induced pSTAT6 IC50” value was 0.269 nM.

Going from B1 to B2, the “Inhibition of IL-13 induced pSTAT6 IC50” value rises from 0.599 nM to 0.916 nM.

B3 was tested, and the “Inhibition of IL-13 induced pSTAT6 IC50” value was 1.09 nM.

Target: T1, hIL-4Rα on cells
Test: cell-based or functional assay
Remark: another data set of the same source

First: B1
Second: B2
The “Inhibition of IL-4 induced TARC IC50” value of the first is 1.8-fold lower: 0.127 nM for the first, 0.228 nM for the second.

B3 was tested, and the “Inhibition of IL-4 induced TARC IC50” value was 0.222 nM.

Compared with B1, B2 is 2.2-fold higher in “Inhibition of IL-13 induced TARC IC50” value: 0.212 nM for the first, 0.456 nM for the second.

In the case of B3, the “Inhibition of IL-13 induced TARC IC50” value is reported as 0.361 nM.

Target: T1, hIL-4Rα on cells
Test: cell-based or functional assay
Remark: another data set of the same source

Going from B1 to B2, the “Inhibition of IL-4 induced TF-1 Proliferation IC50” value rises from 0.028 nM to 0.058 nM (2.1-fold).

In the case of B3, the “Inhibition of IL-4 induced TF-1 Proliferation IC50” value is reported as 0.052 nM.

B1 and B2 are within 1.5-fold of each other in “Inhibition of IL-13 induced TF-1 Proliferation IC50” value: 0.117 nM for the first, 0.175 nM for the second.

For B3, the “Inhibition of IL-13 induced TF-1 Proliferation IC50” value was 0.166 nM.

What follows are binders tested against T1, hIL-4Rα on cells (assay: FACS on HEK293 cells, competitor biotin-hIL-4).
Protocol: (§1) Briefly, HEK293 previously transduced to stably express both hIL-13Rα and hIL-4Rα were cultured and harvested. Cells were seeded at 200,000 cells in 100 uL per well. Cells were washed and the supernatant discarded. […] The cells were stained in this mixture at 4° C. for 1 hour. […] Cells were incubated 4° C. for 1 hour, protected from light. Cells were then washed and the MFI of cells in each well were recorded by FACS using a BD FACSCanto II. Subsequent data were analyzed using GraphPad Prism.
(§2) The values reflect absolute IC₅₀ measurements.

B1 and B2 are within 1.5-fold of each other in IC50: 0.23 nM for the first, 0.279 nM for the second.

B3 showed an IC50 of 0.234 nM.

The binders below were run against T1, hIL-4Rα on cells (assay: FACS on HEK293 cells, competitor biotin-hIL-13).
Protocol: as §1, §2

B1 and B2 are within 1.5-fold of each other in IC50: 0.204 nM for the first, 0.209 nM for the second.

For B3, the IC50 was 0.234 nM.

— patent publication US20260193366A1 (APOGEE THERAPEUTICS, published 2026)
